Source: paper PMC5001591

Legend:
Details in all cases: EMSA: 4 nM 32P-RNA, 1X RNA Structure Buffer, 1 ug yeast RNA in 10 ul, 37 C 15 min (plus 1 h room temperature with mRNA); native 6% PAGE, 0.5X TBE, 4 C; pH and …
Hfq [1] = test: EMSA
Hfq [2] = target: Hfq (UniProt P0A6X3); test: footprinting (RNase T1)
Hfq [3] = target: Hfq (UniProt P0A6X3); test: EMSA

Chain of Hfq (UniProt P0A6X3) (P0A6X3 2-102): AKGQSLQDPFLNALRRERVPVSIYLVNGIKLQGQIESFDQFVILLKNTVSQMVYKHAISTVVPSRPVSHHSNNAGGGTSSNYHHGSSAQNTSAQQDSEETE

Row | Substance | Kd (Hfq [1]) [nM] | binding (Hfq [2]) | Kd (Hfq [3]) [nM]
1 | SdsN178 | 28 | – | –
2 | GGGAUUCAGGCAAUGAAUUACUUUUGCAAGCCAUCGCAUUCUCUUAUGUUAUUAAUGAGUUAUGCUGAUUUGUUAAGCAGUUUUAUCAGGCUUGAAAUGGCGUCCAGCCCCGACAGGUGAAUCGUCGGGGCUGAUUUUUUC [SdsN137] | – | binds | 80
3 | GGGUUCAAACUAUCACAUAAAUAAGAUUUAUAUAUAAUUUAUAUUAUUCAGGCAAUGAAUUACUUUUGCAAGCCAUCGCAUUCUCUUAUGUUAUUAAUGAGUUAUGCUGAUUUGUUAAGCAGUUUUAUCAGGCUUGAAAUGGCGUCCAGCCCCGACAGGUGAAUCGUCGGGGCUGAUUUUUUC [SdsN178] | – | binds | 28
4 | SdsN137 | 80 | – | –
